test: yeast display, Sf9 membrane polyspecificity reagent, FACS + sequencing; frameworks hold sequencing errors
In short: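 Sorting gates, low and high (top ~1%), were placed on anti-HA fluorescence to track expression and on streptavidin fluorescence to track reagent binding. A clone's polyreactivity label is taken from the gate it came out of. The reagent was 10% biotinylated, detergent-solubilized Sf9 membrane, applied for 1 hour at 4 °C to galactose-induced yeast display cells.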

Sequence | polyreactivity (PSR sort gate)
QVQLVESGGGLVQAGGSLRLTCAASGSTFFYYAMVWYIHAPGKERELVAAITVRGTSTYYADSVKGRFTISRDIAKNTVYLQMNSLKPEDTAVYYCNTLQPYLYDYWGQGTQVTVSS | high polyreactivity
QVQLVESGGGLVQAGGSLRLSCAASGSIFDLNAMGWYRQAPGKERELVAAISSGGGTYYADSVKGRFTISRDNAKNTVYLQMNSLKPEDTAVYYCNRVTRWTYNYWGQGTQVTVSS | high polyreactivity
QVHLVESGGGLLQAGGSLRLSCAASGYTFVNYAMGWYREAPRKEMELVAAISYRGGSTSYADSVKGRFTISRDNAKNTVYLQMKSLKPEDSAVYYCAVVGQNWQSLRYDYWGQGTQVTVSS | high polyreactivity
QVQLVESGGGLVQAGGSLRLSCAASGSTFPPYAMGWYRQAPGKERELVADITRRGASTYYADSVKGRFTISRDNAKNTDYLQMNSLKPEDTAVYYFAAGPYVGQRWYRYNYDYWGQGTQVTVSS | high polyreactivity
QVQLVESGGGLVQAGGSLRLSCAASGRIFNYYTMGWYRQAPGKEREFVAAISRSGGSTFYADSVKGRFTISRDNAKNTVYLQMNSLKPEDTAVYYCAARSYSRPDGGYVQLDYWGQGTQVTVSS | high polyreactivity
QVQLVESGGGLVQAGGSLRLSCAASGFTFFDNAMGWYRQAPGKERELVAAITWSDGSTYYADSVKGRFTISRDNAKNTVYLQMNSLKPEDTAVYYCAVGFISYSYSNYYDVWYEYYYWGQGTQVTVSS | low polyreactivity
QVQLVESGGGLVQAGGSLRLSCAASGPIIGQYAMVWYIQAPGKERELVAAITYSGGRTYYADSVKGRFTISRDNAKNTVYLQMNSLKPEDTAVYYCAARGRASFERRGGYYYWGQVTQVTVSS | high polyreactivity
QVQRVETGGGLVQAGGSLRLSCAASGRTIRVYAMGWYRQPPGKETELVPAISGSGGSTYYADSVKGRFTISRDNAKNTVYLQMNSLKPEDTAVYFCYAASWTFQTTPKYDYWGQGTLVTVSS | high polyreactivity
QVQLVESGGGLVQAGGSLRLSCAASGIIFYDYAMGWYRQAPGKERELVAAISRSGSSTYYADSVKGRFTISRDNAKNTVYLQMNSLKPEDTAVYYCASRFGDMGYWGQGTQVTVSS | high polyreactivity
QVQLVESGGGLVQAGGSLRLSCAASGRIFYPYAMGWYRQAPGKERELVAAIRWSSGNTRYADSVKGRFTISRDNAKNTVYLQMNSLKPEDTAVYYCAAPAVHILQTVSLTPRPLDYWGQGTQVTVSS | high polyreactivity
QVQLVESGGGLVQAGGSLRLSCASSGLIFSIYAMGWYRQAPGKERELVAAIRWSGGSTYYADSVKGRFTISRDNAKNTVYLQMNSLKPEDTAVYYCNADITVYVRIYQYNYCGQGTQVTVSS | low polyreactivity
QVQLVESGGGLVQAGGSLRLSCAASGFTFIRNAMGWYRPAPGKERELVAAISTSGGTTYYADSVKGRFTISRDNAKNTVYLQMNSLKPEDTAVYYCNKGIGRSDPDYRYYYWGQGTQVTVSS | high polyreactivity
QVQLVESGGGLVQAGGSLRLSCAASGRIFYTNAMGCYRQAPGKERELVAAIRSGGITTYADSVKGRFTISRDNAKNTVYLQMNSLKPEDTAVYYCATRILSIYSIFGAYDYWGQGTQVTVSS | low polyreactivity
QVQLVESWGGLVLAGGRLRLSCAASGSTFPYNAMGWYRQAPGKERELVAVISQRGGSTYYADSLKGRFTISRDNAKNSVYLQMKSLKPEDTAVYYCAAEYIVTYGYDYWGQGTQVTVSS | high polyreactivity
QVQLVESGGGLVQAGGSLRFSCAASGSIIFDGNAMAWSRQAPGKEREMVADITTSDGRTYYADSVKGRFTISRDSAKNTVYFQMNSLKPEDTAVYDCAKPNGYHGGRYDYWGQGSQVTVSS | low polyreactivity
QVQLVESGGGLVQAGGSLRLSCAASGRILRTYAMGWYRQPPGKETELVAAITWSGASTYYADSVKGRFTISRDNAMNTVYLQMNSLKPEDTAVYYCNALSPGYRIYDYWGQGTQETVSS | high polyreactivity
QVQLVESGGGLVQAGGSLRLSCAASGRIFVDNTMGWYRQAPGKEREFVAVISTSGGRTSYADSVKGRFTISRDNAKNTVYLQMNSLKPEDTAVYYCNALYGRYGWSKNYYWGQGTQVTVSS | high polyreactivity
QVQLVESGGGLVQAGGSLRLSCAASGSTFPFYAMGWYRQAPGKERELVATISSDGSTNYADSVKGRFTISRDNAKNTVYLQMNSLKPEDTAVYYCNALARWWAYYDYGYWGQGTQVTVSS | low polyreactivity
QVQLVESGGGLVQAGASLRLSCAASGSIFSSYARGWYRPAPGKERELVAVITNGGSTYYADSVKGRFTISRDYAKNTVYLQMNSLKPEDTAVYYCNARWTKGRKYGYWGQGTQVTVSS | low polyreactivity
QVQLVESGGGLVQAGGSLRLSCAASGSIFSENTRGWYRQAPGKERELVAAISWSGGSTNYADSVKGRFTISRDNAKNTVYLQMNSLKPEDTAVYYCFYWGQCTQVTVSS | low polyreactivity
QVQLVESGGGLVQAGGSLRLSCAASGIIFGYYAMGWYRQAPGKERELVAAIDWTGGNTYYAVSVKGRFTISRDNAKNTVYLQMNSLKPEDTAVYYCAADYNSQEDYWGQGTQVTVSS | low polyreactivity

Sequence | polyreactivity (PSR sort gate)
QVQLVESGGGLVQAGGSLRLSCAASGFTFIQYDMGWYRQAPGKERELVAAISSSGGSTYYADSVNGRFTISRDNAKNTFYLQMNSLKPEDTGVYYCAADPWVRLEYDYWGQGTQVTVSS | low polyreactivity
QVQLVESFGGLVQAGGSLRLICAGSGLTCYVYAMGWSRPAPGKERELVAAISQRGGSTYYADSVKGRFTISRDKAKNTVYLQMNSLKPEDTAVYYCAKYTVQYAFSHYDYWGQGTQVTVSS | high polyreactivity
QVQLVESGVGLVQAGGSLRLSCAASGRIFSFYAMGWYRQAPGKERELVAAITYTDGSTYAVSVKGRFTISRDYAKNTVYLQTNSLKPEDTAVYYCATRYRWTPYDYWGQGTQVTVSS | low polyreactivity
QVQLVESGGGLVQAGGSLRLSCAASGRIFSRYAMGWYRQAPGKERELVATITRRGGSTSYADSVKGRFTISRDNAKNTVYLHMNSLKPEDTAVYYCAAQSFYGIYYGQQDYDYWGQGTQVTVSS | high polyreactivity
QVQLVESGGGLVQAGGSLRLSCAASGSIFSRYAMGWYRQAPGKERELVAAITSSGGRTYYADSVKGRFTISRDNAKNTVYLQMNSLKPEDTAVYYCAAEYYYIVTYDFGYWGQGTQVTVSS | low polyreactivity
QVPLVESGGGLVQAGGSLRLSCAASGRISGYYDMGWYRQAPGKERELVATITSDGGTNYADSVKGRFTISRDNAKNTVYLQMNSLKPEDTAVYYCAAYGWYTKWHFAFGYWGQGTQVTVSS | low polyreactivity
QVQLVESGGGLVQEGGTLRLSCAASGSISIRNAMGWYRQAPGKERELVAAITYSGGSTYYADSVKGRFTISRDTAKNTVYLQMNSLKPEDTAVYYCAKDHYRFRYDYWGQGTQVTVSS | low polyreactivity
QVQLVESGGGLVQAGGSLRLSCAASGLTIKPNAMGWYRQAPGKERELVAAIDWSGGSTYCADSVKGRFTISRDNAKNTVDLQMNSLKPEDTAVYYCAADPPDRLFLYDYWGQGTQVTVSS | low polyreactivity
QVQLVESGGGLVQAGGSLRLSCAASGFTFYDKAMGWNRQAPGKERELVAAINCRSGSTYYADSVKGRFTISRDTAKNTVYLQMNSLKPEDTAVYYCASGLVFHYYAPKSYYLRYDYWGQGTQVTVSS | low polyreactivity
QVQLVESGGGLVQAGGSLRLSCAASGLIFQHNAMGWYRQAPGKEMELVAAISRSAGSTYYADSVKGRFTISRDKAKNTVYLQMNSLKPEDTAVYYCARQYGYQPVRYGYWGQGTQVTVSS | low polyreactivity
QVQLVESGGGLVQAGGSLRLSCAASGRIFTGYTMGWYRQAPGKERELVAGITGSSGSTYYADSVKGRFTISRDNAKNTVYLQMNSLKPEDTAVYYCAAGRRYRSVGYGYWGQGTQVTVSS | high polyreactivity
QVQLVESGGGLVQAGGSLRLSCAASGSIFAYYAMGWYRQAPGKERELVAGIRISGGRTYYADSVKGRFTISRDNAKNTVYLQMNSLKPEDTAVYYCNARWRGFRTGAGDYWGQGTQVTVSS | high polyreactivity
QVQLEESGGGLVQAGGSLRLSCAASGSTISENTMGWYRQAPGKERELVDAISFSGGSTYYADSVKGRFTISRDIAKNTVFLQMNSLKPEDTAVYYCRRFSSSPKLALGEYDFWGQGTQVTVSS | low polyreactivity
QLQLVESGGGLVQAGGSLRLSFAASSIIPYNAMGWYRQAPVNEREFVAAISVRGVITYYADSVKGRFTISRDNAKNTVYLQMNSLKPEDTAVYDCAADYQPAGVDYWGQGTQVTVSS | low polyreactivity
QVQLVESGGGLVQAGGSLRLSCAASGSTLNRNVMGWSRQAPGKERQMVAVITYGVGSTYYADSVKGRFTISRDNAKNTHYIQMNSLKPEDTAVYYCNKDPLVFDYWGQGTQVTVSS | low polyreactivity
QVQLVESAGGLVQAGGSLRLSCAASGRTFRKYAMGRYRQAPGKERELVAAISSSGGSTFYADSVKGRFTISRDNAKNTVYLQMNSLKPEDTAVYYCAAEALRRYSFGYWGQGTQVTVSS | low polyreactivity
QVQLVESGGGLVQAGGSLRLSCAASGRIFPNYVMGWYRQAPGKERELVAAISRRGGRTYYADSVKGRFTISRDNAKNTVYLQMNSLKPEDTAVYYCARVPTRAEDVAGWTGMDYWGQGTQVTVSS | high polyreactivity
QVQLEESGGGLVQAGGSLRLSCAASGSTFGWYAMGWYRQAPGKERELVASITSGGRTNYADSVKGRFTISRDNAKNTVYLQMNCLKPEDTAVYYCAKRVYGSNSLYDYWGQGTQVTVTS | low polyreactivity
QVQLVESGGGLVQAGGSLRLSCAASGFTFKVYNAMGWYRQAPGKERELVAAISSSVGGTYYADSVKGRFTISRDYAKNTVYLQMNSLKPEDTAVYYCATDDFTYVVAKDGDYWGQGTQVTVSS | low polyreactivity
QVQLVESGGGLVQAGGSLRLSCAASGFTFRINAMGWYRQAPGKERELVAAITWIGGSTYYADSVKGRFTISRDNAKNTVYLQMNSLKPEDTALYYCAADVYNRWWWRAYDYWGQGTQVTVSS | high polyreactivity
